Measured values taken from article PMC6430397, “The pharmacological properties of 3-arm or 4-arm DOTA constructs for conjugation to α-melanocyte-stimulating hormone analogues for melanoma imaging” (PLoS ONE, 2019).
Read-outs that look alike come from different tables or passages of the source.

Assays:
[1] = Stability analysis in plasma, liver and kidney of mice, ex vivo TLC; design: species or system mouse; conditions: γ-counter, mean ± SD, n = 3 mice
[2] = Biological distribution in B16-F1 melanoma-bearing mice; assay type: in vivo, mouse; conditions: male, C57BL6, mouse, in vivo, iv, 37 kBq/mouse, total radioactivity, mean, n = 3 mice; for tissue uptake at 10 min / tissue uptake dose at 10 min: 10 min after i.v. 37 kBq/mouse; for tissue uptake at 0.5 h / tissue uptake dose at 0.5 h: 30 min after i.v. 37 kBq/mouse; for tissue uptake at 1 h / tissue uptake dose at 1 h: 60 min after i.v. 37 kBq/mouse; for tissue uptake at 2 h / tissue uptake dose at 2 h: 120 min after i.v. 37 kBq/mouse; for tissue uptake at 3 h / tissue uptake dose at 3 h: 180 min after i.v. 37 kBq/mouse
Protocol: (§1) C57BL6 male mice (5 weeks old) were transplanted with B16-F1 cells (5 × 10^5 cells/100 μL) into the thigh of the mice. […] The mice were housed and continuously monitored each day for 2 weeks in a 12-hour light/12-hour dark cycle with free access to food and water. The tumor size reached 8.7 ± 2.8 mm at 2 weeks after transplant of cells. Two mice with tumor sizes of 13 and 15 mm were excluded from our experiments. Mice with a tumor size <10 mm were fasted with no food overnight with water supplied ad libitum before experiments.
(§2) For biological distribution studies, B16-F1-bearing mice were administered ^111In-labeled 3-arm or 4-arm DOTA-α-MSH via the tail vein (37 kBq/mouse). At 10, 30, 60, 120, and 180 min after injection, the mice were euthanized under isoflurane (n = 3 per time point), and the following tissues were collected: brain, lung, heart, stomach, liver, small intestine, large intestine, kidney, blood, muscle, and B16-F1 melanoma. Tissues were weighed, and radioactivity was quantified using an automated γ-ray counter to calculate the percent injected dose (%ID) or percent injected dose per gram of tissue (%ID/g).
(§3) For SPECT imaging, ^111In-labeled 3-arm or 4-arm DOTA-α-MSH was injected into the tail vein of four B16-F1-bearing mice in total (37 MBq/mouse). For SPECT imaging, acquisition was started at 10 min after injection and continued every 10 min for 180 min. The data were reconstructed using the ordered subset expectation maximization method with 16 subsets and six iterations including no scatter and attenuation correction. The voxel size was set to 0.8×0.8×0.8 mm. Post-reconstruction smoothing filtering was applied using a 1.0-mm Gaussian filter. […] In these images, three to five regions of interest were placed over the kidney, muscle, and B16-F1 melanoma in which accumulation could be seen, and the time activity curve of each was obtained as the %ID/g.

[3] = tested on: B16-F1 melanoma-bearing mice; test: as above; assay type: in vivo, mouse; conditions: for Melanoma-to-blood ratio / Melanoma-to-kidney ratio / Melanoma-to-muscle ratio: mean ± SD, four mice
Protocol: as §1, §2, §3

[4] = read-out: Biological distribution, Blood
[5] = read-out: Biological distribution, Brain
[6] = read-out: Biological distribution, Heart
[7] = read-out: Biological distribution, Kidney
[8] = read-out: Biological distribution, Large intestine
[9] = read-out: Biological distribution, Liver
[10] = read-out: Biological distribution, Lung
[11] = read-out: Biological distribution, Muscle
[12] = read-out: Biological distribution, Small intestine
[13] = read-out: Biological distribution, Stomach
[14] = B16-F1 melanoma, read-out: Biological distribution, Melanoma
[15] = average over all acquisition time points

SMILES: CSCC[C@H](NC(=O)[C@H](CO)NC(=O)[C@H](Cc1ccc(O)cc1)NC(=O)[C@H](CO)NC(C)=O)C(=O)N[C@@H](CCC(=O)O)C(=O)N[C@@H](Cc1c[nH]cn1)C(=O)N[C@@H](Cc1ccccc1)C(=O)N[C@@H](CCCNC(=N)N)C(=O)N[C@@H](Cc1c[nH]c2ccccc12)C(=O)NCC(=O)N[C@@H](CCCCNC(=S)Nc1ccc(C[C@H]2CN(CC(=O)O)CCN(CC(=O)O)CCN(CC(=O)O)CCN2CC(=O)O)cc1)C(=O)N1CCC[C@H]1C(=O)N[C@H](C(=O)O)C(C)C [^111In-labeled 4-arm DOTA-α-MSH, metal not drawn]
- Fraction ratio of intact radiotracer, Kidney (%) ([1]; 10 min after i.v. injection 3.7 MBq/mouse): 96.1 ± 2.0%
- Fraction ratio of intact radiotracer, Kidney (%) ([1]; 60 min after i.v. injection 3.7 MBq/mouse): 93.3 ± 3.5%
- Fraction ratio of intact radiotracer, Kidney (%) ([1]; 120 min after i.v. injection 3.7 MBq/mouse): 84.5 ± 3.3%
- Fraction ratio of intact radiotracer, Kidney (%) ([1]; 180 min after i.v. injection 3.7 MBq/mouse): 80.5 ± 2.8%
- tissue uptake at 10 min [2, 4]: 4.03 %ID/g
- tissue uptake at 10 min [2, 5]: 0.04 %ID/g
- tissue uptake at 10 min [2, 6]: 0.55 %ID/g
- tissue uptake at 10 min [2, 7]: 17.1 %ID/g
- tissue uptake dose at 10 min [2, 8]: 0.03 %ID
- tissue uptake at 10 min [2, 9]: 2.52 %ID/g
- tissue uptake at 10 min [2, 10]: 0.42 %ID/g
- tissue uptake at 10 min [2, 11]: 0.1 %ID/g
- tissue uptake dose at 10 min [2, 12]: 0.05 %ID
- tissue uptake dose at 10 min [2, 13]: 0.09 %ID
- tissue uptake at 0.5 h [2, 4]: 2.02 %ID/g
- tissue uptake at 0.5 h [2, 5]: 0.03 %ID/g
- tissue uptake at 0.5 h [2, 6]: 0.46 %ID/g
- tissue uptake at 0.5 h [2, 7]: 13.3 %ID/g
- tissue uptake dose at 0.5 h [2, 8]: 0.03 %ID
- tissue uptake at 0.5 h [2, 9]: 1.45 %ID/g
- tissue uptake at 0.5 h [2, 10]: 0.52 %ID/g
- tissue uptake at 0.5 h [2, 11]: 0.12 %ID/g
- tissue uptake dose at 0.5 h [2, 12]: 0.04 %ID
- tissue uptake dose at 0.5 h [2, 13]: 0.09 %ID
- tissue uptake at 1 h [2, 4]: 1.01 %ID/g
- tissue uptake at 1 h [2, 5]: 0.03 %ID/g
- tissue uptake at 1 h [2, 6]: 0.38 %ID/g
- tissue uptake at 1 h [2, 7]: 8.12 %ID/g
- tissue uptake dose at 1 h [2, 8]: 0.04 %ID
- tissue uptake at 1 h [2, 9]: 1.18 %ID/g
- tissue uptake at 1 h [2, 10]: 0.22 %ID/g
- tissue uptake at 1 h [2, 11]: 0.08 %ID/g
- tissue uptake dose at 1 h [2, 12]: 0.03 %ID
- tissue uptake dose at 1 h [2, 13]: 0.08 %ID
- tissue uptake at 2 h [2, 4]: 0.11 %ID/g
- tissue uptake at 2 h [2, 5]: 0.02 %ID/g
- tissue uptake at 2 h [2, 6]: 0.14 %ID/g
- tissue uptake at 2 h [2, 7]: 6.31 %ID/g
- tissue uptake dose at 2 h [2, 8]: 0.03 %ID
- tissue uptake at 2 h [2, 9]: 0.9 %ID/g
- tissue uptake at 2 h [2, 10]: 0.13 %ID/g
- tissue uptake at 2 h [2, 11]: 0.04 %ID/g
- tissue uptake dose at 2 h [2, 12]: 0.02 %ID
- tissue uptake dose at 2 h [2, 13]: 0.05 %ID
- tissue uptake at 3 h [2, 4]: 0.03 %ID/g
- tissue uptake at 3 h [2, 5]: 0.01 %ID/g
- tissue uptake at 3 h [2, 6]: 0.05 %ID/g
- tissue uptake at 3 h [2, 7]: 5.19 %ID/g
- tissue uptake dose at 3 h [2, 8]: 0.03 %ID
- tissue uptake at 3 h [2, 9]: 0.61 %ID/g
- tissue uptake at 3 h [2, 10]: 0.06 %ID/g
- tissue uptake at 3 h [2, 11]: 0.03 %ID/g
- tissue uptake dose at 3 h [2, 12]: 0.02 %ID
- tissue uptake dose at 3 h [2, 13]: 0.05 %ID
- tissue uptake at 10 min [2, 14]: 2.22 %ID/g
- tissue uptake at 0.5 h [2, 14]: 2.25 %ID/g
- tissue uptake at 1 h [2, 14]: 3.34 %ID/g
- tissue uptake at 2 h [2, 14]: 4.52 %ID/g
- tissue uptake at 3 h [2, 14]: 4.83 %ID/g
- Melanoma-to-blood ratio ([3]; 10 min after injection): 0.55 ± 0.14
- Melanoma-to-kidney ratio ([3]; 10 min after injection): 0.13 ± 0.07
- Melanoma-to-muscle ratio ([3]; 10 min after injection): 22.20 ± 3.35
- Melanoma-to-blood ratio ([3]; 30 min after injection): 1.11 ± 0.28
- Melanoma-to-kidney ratio ([3]; 30 min after injection): 0.17 ± 0.11
- Melanoma-to-muscle ratio ([3]; 30 min after injection): 18.75 ± 4.45
- Melanoma-to-blood ratio ([3]; 60 min after injection): 3.31 ± 0.35
- Melanoma-to-kidney ratio ([3]; 60 min after injection): 0.41 ± 0.15
- Melanoma-to-muscle ratio ([3]; 60 min after injection): 41.75 ± 6.38
- Melanoma-to-blood ratio ([3]; 120 min after injection): 41.09 ± 4.78
- Melanoma-to-kidney ratio ([3]; 120 min after injection): 0.72 ± 0.18
- Melanoma-to-muscle ratio ([3]; 120 min after injection): 113.00 ± 7.33
- Melanoma-to-blood ratio ([3]; 180 min after injection): 155.81 ± 12.93
- Melanoma-to-kidney ratio ([3]; 180 min after injection): 0.93 ± 0.15
- Melanoma-to-muscle ratio ([3]; 180 min after injection): 155.81
- Melanoma-to-muscle ratio ([3]; 180 min after injection, listed as 4-arm DOTA-α-MSH): 155.81 ± 8.63
- Higher average accumulation in B16-F1 melanoma than 111In-labeled 3-arm DOTA-α-MSH [3, 15]: 1.32 fold
- Lower average accumulation in kidney than 111In-labeled 3-arm DOTA-α-MSH [3, 15]: 1.38 fold
